Laboratory results: PMC4808631

Molecular target: T1, Ets-1 ΔN331 (UniProt P27577 331-440)
T1 sequence: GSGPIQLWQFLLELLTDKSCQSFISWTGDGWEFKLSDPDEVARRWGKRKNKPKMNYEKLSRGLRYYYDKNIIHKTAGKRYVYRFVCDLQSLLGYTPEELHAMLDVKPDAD
Assay: EMSA

B1: high affinity ETS binding site 27-mer duplex (dsDNA)
DNA 1: TCGACGGCCAAGCCGGAAGTGAGTGCC
DNA 2: TCGAGGCACTCACTTCCGGCTTGGCCG
binding result: binds
